Experimental data reported in US20250090644A1.

Legend:
Test in all cases: cell-based or functional assay
[1] = biological target: E. coli expressed recombinant human microplasmin Phe587Ala (human) (UniProt P00747)
[2] = biological target: E. coli expressed recombinant human microplasmin Arg610Ala (human) (UniProt P00747)
[3] = biological target: E. coli expressed recombinant human microplasmin, wild type (human) (UniProt P00747)
[4] = biological target: E. coli expressed recombinant human microplasmin Gly739Ala (human) (UniProt P00747)
[5] = biological target: E. coli expressed recombinant human microplasmin Glu641Ala (human) (UniProt P00747)
[6] = biological target: E. coli expressed recombinant human microplasmin K642A (Table 3) (human) (UniProt P00747)
[7] = biological target: E. coli expressed recombinant human microplasmin Arg582Ala (human) (UniProt P00747)
[8] = biological target: E. coli expressed recombinant human microplasmin Lys607Ala (human) (UniProt P00747)
[9] = biological target: E. coli expressed recombinant human microplasmin Pro642Ala (human) (UniProt P00747)
[10] = biological target: E. coli expressed recombinant human microplasmin Met585Ala (human) (UniProt P00747)
[11] = biological target: E. coli expressed recombinant human microplasmin Ser608Ala (human) (UniProt P00747)

B1: α2-antiplasmin (protein, UniProt P08697 40-491, looked up)
chain: NQEQVSPLTLLKLGNQEPGGQTALKSPPGVCSRDPTPEQTHRLARAMMAFTADLFSLVAQTSTCPNLILSPLSVALALSHLALGAQNHTLQRLQQVLHAGSGPCLPHLLSRLCQDLGPGAFRLAARMYLQKGFPIKEDFLEQSEQLFGAKPVSLTGKQEDDLANINQWVKEATEGKIQEFLSGLPEDTVLLLLNAIHFQGFWRNKFDPSLTQRDSFHLDEQFTVPVEMMQARTYPLRWFLLEQPEIQVAHFPFKNNMSFVVLVPTHFEWNVSQVLANLSWDTLHPPLVWERPTKVRLPKLYLKHQMDLVATLSQLGLQELFQAPDLRGISEQSLVVSGVQHQSTLELSEVGVEAAAATSIAMSRMSLSSFSVNRPFLFFIFEDTTGLPLFVGSVRNPNPSAPRELKEQQDSPGNKDFLQSLKGFPRGDKLFGPDLKLVPPMEEDYPQFGSPK
With B1 as the binder, how does the IC50 (relative to the µPlm WT enzyme) (fold relative to WT) [1] read?
Its IC50 (relative to the µPlm WT enzyme) (fold relative to WT) is 3.9.

What about the activity remaining in the presence of α2-AP (% activity remaining) [1] of the same binder?
Its activity remaining in the presence of α2-AP (% activity remaining) is 50.

What about the IC50 (relative to the µPlm WT enzyme) (fold relative to WT) [2] of the same binder?
Its IC50 (relative to the µPlm WT enzyme) (fold relative to WT) is 1.7.

And the IC50 (relative to the µPlm WT enzyme) (fold relative to WT) [3]?
Its IC50 (relative to the µPlm WT enzyme) (fold relative to WT) is 1.

And the α2-AP inhibition of µPlm activity [4]?
Its α2-AP inhibition of µPlm activity is greater than 400 nM.

And the IC50 (relative to the µPlm WT enzyme) (fold relative to WT) [5]?
Its IC50 (relative to the µPlm WT enzyme) (fold relative to WT) is 1.6.

What about the IC50 (relative to the µPlm WT enzyme) (fold relative to WT) [6] of the same binder?
The IC50 (relative to the µPlm WT enzyme) (fold relative to WT) was 1.

What about the IC50 (relative to the µPlm WT enzyme) (fold relative to WT) [7] of the same binder?
The IC50 (relative to the µPlm WT enzyme) (fold relative to WT) was 1.6.

And the IC50 (relative to the µPlm WT enzyme) (fold relative to WT) [8]?
The IC50 (relative to the µPlm WT enzyme) (fold relative to WT) was 1.

And the IC50 of α2-AP inhibition (fold of WT) (fold relative to WT) [9]?
Its IC50 of α2-AP inhibition (fold of WT) (fold relative to WT) is 2.

What about the IC50 (relative to the µPlm WT enzyme) (fold relative to WT) [10] of the same binder?
The IC50 (relative to the µPlm WT enzyme) (fold relative to WT) was 1.2.

What about the IC50 (relative to the µPlm WT enzyme) (fold relative to WT) [11] of the same binder?
Its IC50 (relative to the µPlm WT enzyme) (fold relative to WT) is 1.2.
